Laboratory results: patent publication US11447550B2, “Peptides for molecular detection of PD-L1” (THE CURATORS OF THE UNIVERSITY OF MISSOURI, priority 2016, dated 2022)
Ends that are not written are not given here.

Experiments:
PD-L1 [1] = biological target: T1, PD-L1 (Homo sapiens, UniProt Q9NZQ7); experiment: Peptide library study of stability and PD-L1 affinity; format: binding; conditions: library of synthesized peptides
Procedure: Initial research was focuses on understanding the interaction of PD-1 and PD-L1 based on X-ray crystal structure data (FIG. 14) with the goal of identifying the peptide sequence that is selectively mediating the interactions. After the crystal structure of each protein was identified, a proprietary Fortran program was used to analyze which amino acid sequences interact most closely between the two proteins. Number of occurrences for each sequence was calculated and used to identify the peptide sequences used in this study. […] As a first step, a library of peptides was synthesized and the stability and PD-L1 affinity was studied. […] Data related to anti-PD-L1 and mock peptide was used to synthesize peptides for this study. The binding sequences of each peptide were further modified to incorporate either biotin or fluorophore for antigen detection, and to increase solubility of the peptide.

PD-L1 [2] = biological target: T1, PD-L1; experiment: Immunohistochemistry using Cy5-peptide (fluorescence) on FFPE tissues and lung cancer TMA; format: binding; parameters: Seven PD-L1 expressing NSCLC patient tissues were obtained from the MU OneHealth tissue bank; tissue MU OneHealth tissue bank; U.S. Biomax (TMA) LC1923; host or cells: FFPE placenta, seven NSCLC patient tissues, 192-case lung cancer tissue microarray, four Hodgkin's lymphoma cases
Excerpt: PD-L1 expression was investigated in the same seven FFPE tissues and 192 lung cancer cases on a microarray using our peptide conjugated with Cy5 fluorophore. A lung cancer tissue microarray (TMA) was purchased from U.S. Biomax that contains 192 separate cases of various types of lung cancers (LC1923, biomax.us). In addition, seven NSCLC patient tissues were obtained from the Mizzou OneHealth tissue bank and de-identified according to IRB protocols. Paraffin-embedded tissue slides were baked overnight, then de-waxed and rehydrated according to standard protocols. Tissue sections were then subjected to antigen retrieval in EDTA at 95° C. for 20 minutes in EDTA ([…]). The solution was cooled for an additional 20 minutes on the bench top prior to buffer rinse. Tissues were then incubated with 15 μM Cy5-conjugated peptide for 2 hours in a humid chamber in the dark at RT. After 2 hours, slides were washed with buffer. The slides were then mounted using nucleus-specific DAPI counterstain and cover slipped. Slides were then imaged using fluorescence microscopy on a Leica DM5500 and compared to the same sections which had been stained with the Ventana antibody. For fluorescent analysis, DAPI channels and Cy5 channels were overlaid to image cell nuclei and PD-L1 expression, respectively.
Staining of the placenta and seven selected NSCLC patient tissues was again compared using the SP263 antibody and RK-10-Cy5 which was conjugated with a Cy5 fluorophore (FIG. 16). To stain with the fluorescent PD-L1 peptide, antigen retrieval was performed and tissue slides were treated with 15 μM fluorescent peptide in a dark, humid chamber for 2 hours, washed with buffer, then counter-stained and mounted with DAPI nucleus stain. Peptide-stained slides were imaged on a Leica DM5500 using channels specific for DAPI or Cy5, and channels were overlaid to examine PD-L1 expression. To confirm the data from the IHC stained tissues, the same seven patient tissues A-G were stained with RK-10-Cy5 (FIG. 10). […]

T1 sequence (Q9NZQ7 19-290): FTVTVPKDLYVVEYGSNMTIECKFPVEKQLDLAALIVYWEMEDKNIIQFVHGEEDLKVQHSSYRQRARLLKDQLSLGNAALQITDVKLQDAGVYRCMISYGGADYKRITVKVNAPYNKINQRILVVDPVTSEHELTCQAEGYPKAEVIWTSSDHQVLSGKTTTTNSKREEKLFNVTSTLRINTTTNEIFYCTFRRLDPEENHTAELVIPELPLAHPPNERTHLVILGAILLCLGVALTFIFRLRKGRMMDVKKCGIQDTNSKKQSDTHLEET

PD-L1 affinity (PD-L1 [1]): high affinity
staining of Reed-Sternberg cells (PD-L1 [2]; four Hodgkin's lymphoma patient samples, FIG. 13): showed PD-L1 staining
Substance: Cy5-GSGSGSTYLCGAISLAPKAQIKESL [RK-10-Cy5]
tumor staining in lung cancer tissue microarray (PD-L1 [2]; 192 lung cancer cases (U.S. Biomax TMA), majority of cases, FIG. 11 panels d, e, f): consistent, specific staining in tumor cells and immune infiltrate
fluorescent tumor staining in NSCLC patient tissues (PD-L1 [2]; seven NSCLC patient tissues A-G, 15 μM fluorescent peptide, 2 hours, FIG. 10): stained many areas of tumor that the SP263 antibody did not
